Experimental data taken from article PMC9701220, “Molecular basis for glycan recognition and reaction priming of eukaryotic oligosaccharyltransferase” (Nature Communications, 2022).
Values belong to the binder of their own block, whether it stands above or below them. The star is where a group is joined. 5‑TAMRA = CN(C)c1ccc2c(-c3ccc(C(=O)*)cc3C(=O)[O-])c3ccc(N(C)C)cc3[o+]c2c1

Legend:
Conditions in all cases: both partners purified
[1] = target: T1, STT3, catalytic subunit of S. cerevisiae OST (S. cerevisiae, UniProt P39007 1-718); experiment: cryo-EM structure; nanodisc-reconstituted OST 2.5 uM incubated with 7.5 uM Dol20-PP-GlcNAc2Man9Glc3 and 500 uM TAMRA-YA(Dab)ATS peptide for 15 min before vitrification; MnCl2 present; the sample gave two states, LLO-bound (3.0 A) and ternary complex (3.1 A)
T1 construct: STT3, catalytic subunit of S. cerevisiae OST; Stood in the assay within the whole OST complex; also called S.c; STT3; source: S. cerevisiae, as a subunit of the purified OST complex (Rho-1D4 antibody Sepharose through OST4-1D4, SEC)
T1 sequence: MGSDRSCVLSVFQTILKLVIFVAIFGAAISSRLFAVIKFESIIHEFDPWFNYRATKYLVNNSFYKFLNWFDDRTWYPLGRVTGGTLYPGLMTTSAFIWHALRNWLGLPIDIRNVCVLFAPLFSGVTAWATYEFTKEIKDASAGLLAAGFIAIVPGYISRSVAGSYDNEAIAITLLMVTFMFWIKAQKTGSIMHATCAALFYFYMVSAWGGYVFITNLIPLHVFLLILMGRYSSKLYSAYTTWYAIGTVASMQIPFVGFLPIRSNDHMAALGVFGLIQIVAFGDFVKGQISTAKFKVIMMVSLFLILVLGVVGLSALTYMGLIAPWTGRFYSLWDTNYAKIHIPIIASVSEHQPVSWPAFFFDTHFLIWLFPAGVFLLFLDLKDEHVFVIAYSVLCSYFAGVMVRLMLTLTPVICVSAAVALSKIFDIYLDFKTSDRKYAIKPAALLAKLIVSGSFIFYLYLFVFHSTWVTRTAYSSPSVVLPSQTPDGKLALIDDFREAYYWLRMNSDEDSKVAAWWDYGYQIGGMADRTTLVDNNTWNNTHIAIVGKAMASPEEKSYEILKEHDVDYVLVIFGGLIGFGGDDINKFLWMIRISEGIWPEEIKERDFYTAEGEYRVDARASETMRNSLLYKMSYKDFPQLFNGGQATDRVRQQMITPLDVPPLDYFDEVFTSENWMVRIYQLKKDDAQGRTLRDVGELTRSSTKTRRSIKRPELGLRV

[2] = target: T2, WBP1, subunit of S. cerevisiae OST (S. cerevisiae, UniProt P33767 21-430); experiment: as above
T2 construct: WBP1, non-catalytic subunit of S. cerevisiae OST; Stood in the assay within the whole OST complex; also called WPB1; source: S. cerevisiae, as a subunit of the purified OST complex (Rho-1D4 antibody Sepharose through OST4-1D4, SEC)
T2 sequence (looked up): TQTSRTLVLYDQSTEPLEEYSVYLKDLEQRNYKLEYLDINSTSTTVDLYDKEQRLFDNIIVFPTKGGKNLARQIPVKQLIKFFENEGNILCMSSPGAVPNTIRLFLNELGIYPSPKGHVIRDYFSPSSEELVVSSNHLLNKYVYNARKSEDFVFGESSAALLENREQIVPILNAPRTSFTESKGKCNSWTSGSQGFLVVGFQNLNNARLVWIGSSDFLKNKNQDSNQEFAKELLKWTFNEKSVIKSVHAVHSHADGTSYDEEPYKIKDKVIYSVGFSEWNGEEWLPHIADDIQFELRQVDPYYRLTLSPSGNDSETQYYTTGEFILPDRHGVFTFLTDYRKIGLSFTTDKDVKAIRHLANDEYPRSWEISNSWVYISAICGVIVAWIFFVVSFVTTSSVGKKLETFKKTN

[3] = target: T3, S. cerevisiae oligosaccharyltransferase (OST) complex, OST3-containing (S. cerevisiae, UniProt P39007 1-718; P41543 23-476; Q92316 1-86; P48439 23-350; Q99380 1-36; P46964 …); experiment: cryo-EM structure; digitonin-purified OST 18 uM incubated with 500 uM TAMRA-YANATS peptide for 15 min before vitrification, no LLO; the sample gave two states, peptide-bound (2.8 A) and apo (2.9 A)
T3 construct: STT3, catalytic subunit of S. cerevisiae OST; OST1, subunit of S. cerevisiae OST (subcomplex I); OST5, subunit of S. cerevisiae OST (subcomplex I); OST3, oxidoreductase subunit of S. cerevisiae OST (subcomplex II); expressed from the plasmid YEp352-OST3 in an ost6 deletion strain; OST4, subunit of S. cerevisiae OST (subcomplex II); genomic OST4-1D4; OST2, subunit of S. cerevisiae OST (subcomplex …)
T3 sequence (P41543 23-476, chain 2 of 4): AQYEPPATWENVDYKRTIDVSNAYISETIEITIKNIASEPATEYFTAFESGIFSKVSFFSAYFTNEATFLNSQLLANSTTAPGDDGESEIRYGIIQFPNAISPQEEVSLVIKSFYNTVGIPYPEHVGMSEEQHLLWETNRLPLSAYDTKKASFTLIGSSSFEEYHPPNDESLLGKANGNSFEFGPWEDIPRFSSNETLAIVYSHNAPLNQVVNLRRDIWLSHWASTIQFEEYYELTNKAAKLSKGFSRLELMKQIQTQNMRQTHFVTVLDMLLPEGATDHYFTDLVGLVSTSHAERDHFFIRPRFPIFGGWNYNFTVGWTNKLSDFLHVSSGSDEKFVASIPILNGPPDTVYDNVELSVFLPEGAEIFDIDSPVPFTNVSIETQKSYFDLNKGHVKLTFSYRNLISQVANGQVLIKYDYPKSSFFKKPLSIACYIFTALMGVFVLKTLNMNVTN
T3 sequence (Q92316 whole entry, chain 3 of 4): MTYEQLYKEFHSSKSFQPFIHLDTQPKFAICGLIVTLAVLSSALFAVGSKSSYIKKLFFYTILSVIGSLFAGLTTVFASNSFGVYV
T3 sequence (Q99380 whole entry, chain 5 of 4): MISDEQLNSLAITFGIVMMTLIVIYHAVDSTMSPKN
T3 sequence (Q02795 20-286, chain 8 of 4, further chain): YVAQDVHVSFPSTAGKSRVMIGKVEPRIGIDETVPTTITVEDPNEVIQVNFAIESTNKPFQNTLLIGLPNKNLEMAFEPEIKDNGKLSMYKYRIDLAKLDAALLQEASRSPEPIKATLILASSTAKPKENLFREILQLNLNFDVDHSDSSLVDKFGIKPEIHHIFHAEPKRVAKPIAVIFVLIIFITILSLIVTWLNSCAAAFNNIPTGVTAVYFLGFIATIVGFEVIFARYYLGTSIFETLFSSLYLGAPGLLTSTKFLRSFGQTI

- binding result [1]: binds
B1: OST3, subunit of S. cerevisiae OST (natural protein, UniProt P48439 23-350, looked up)
chain: MSSNRLLKLANKSPKKIIPLKDSSFENILAPPHENAYIVALFTATAPEIGCSLCLELESEYDTIVASWFDDHPDAKSSNSDTSIFFTKVNLEDPSKTIPKAFQFFQLNNVPRLFIFKPNSPSILDHSVISISTDTGSERMKQIIQAIKQFSQVNDFSLHLPMDWTPIITSTIITFITVLLFKKQSKLMFSIISSRIIWATLSTFFIICMISAYMFNQIRNTQLAGVGPKGEVMYFLPNEFQHQFAIETQVMVLIYGTLAALVVVLVKGIQFLRSHLYPETKKAYFIDAILASFCALFIYVFFAALTTVFTIKSPAYPFPLLRLSAPFK
notes: OST3, oxidoreductase subunit of S. cerevisiae OST; Stood in the assay within the whole OST complex; source: S. cerevisiae (YEp352-OST3), as a subunit of the purified OST complex (Rho-1D4 antibody Sepharose through OST4-1D4, SEC)

- binding result [2]: binds
B2: OST2, subunit of S. cerevisiae OST (natural protein)
chain: MAKAPKANTPKVTSTSSAVLTDFQETFKTSKRAYFAQIEKYPKLKLIDTFCFFLVLLGVIQCTFIILIRDNFPFNAFLAGFIICVGQFVLLMSLRLQLCNSFPGISKNRAFAEFIVASLILHFVCLHFIN
notes: OST2, non-catalytic subunit of S. cerevisiae OST; Stood in the assay within the whole OST complex; source: S. cerevisiae, as a subunit of the purified OST complex (Rho-1D4 antibody Sepharose through OST4-1D4, SEC)

B3: TAMRA-YANATS-NH2 (peptide)
peptide: {5‑TAMRA}-YANATS-NH2
SMILES: C[C@H](NC(=O)[C@H](Cc1ccc(O)cc1)NC(=O)c1ccc(-c2c3ccc(N(C)C)cc3[o+]c3cc(N(C)C)ccc23)c(C(=O)[O-])c1)C(=O)N[C@@H](CC(N)=O)C(=O)N[C@@H](C)C(=O)N[C@H](C(=O)N[C@@H](CO)C(N)=O)[C@@H](C)O
notes: acceptor substrate of OST; also called 5-TAMRA-YANATS; reactive peptide; source: bought: Genscript
- binding result [3]: binds
